From patent US6008029A, “Purified coprinus laccases and nucleic acids encoding the same” (Novo Nordisk Biotech Inc., priority 1996, dated 1999) come the findings set out here.

Substrate in data set [1]: CCn1c(=NN=c2sc3cc(S(=O)(=O)O)ccc3n2CC)sc2cc(S(=O)(=O)O)ccc21
Put plainly: purified protein, by the assay type. As to conditions: other: pH 5.3, ABTS oxidation, 20.0 °C.

Substrate in data set [2]: COc1cc(C=NN=Cc2cc(OC)c(O)c(OC)c2)cc(OC)c1O
Put plainly: purified protein, by the assay type. As to conditions: other: pH 5.3, syringaldazine oxidation, 20.0 °C. It counts as biochemical, Coprinus cinereus.

B1: recombinant Coprinus cinereus laccase Lcc1 (SEQ ID NO:27), expressed in Aspergillus oryzae (Coprinopsis cinerea) (protein)
chain: QIVNSVDTMTLTNANVSPDGFTRAGILVNGVHGPLIRGGKNDNFELNVVNDLDNPTMLRPTSIHWHGLFQRGTNWADGADGVNQCPISPGHAFLYKFTPAGHAGTFWYHSHFGTQYCDGLRGPMVIYDDNDPHAALYDEDDENTIITLADWYHIPAPSIQGAAQPDATLINGKGRYVGGPAAELSIVNVEQGKKYRMRLISLSCDPNWQFSIDGHELTIIEVDGQLTEPHTVDRLQIFTGQRYSFVLDANQPVDNYWIRAQPNKGRNGLAGTFANGVNSAILRYAGAANADPTTSANPNPAQLNEADLHALIDPAAPGIPTPGAADVNLRFQLGFSGGRFTINGTAYESPSVPTLLQIMSGAQSANDLLPAGSVYELPRNQVVELVVPAGVLGGPHPFHLHGHAFSVVRSAGSSTYNFVNPVKRDVVSLGVTGDEVTIRFVTDNPGPWFFHCHIEFHLMNGLAIVFAEDMANTVDANNPPVEWAQLCEIYDDLPPEATSIQTVVRRAEPTGFSAKFRREGL
As to B1, in data set [1], the Km – broadly, the concentration of substrate that gives half-maximal velocity – came out at 23 ± 3 µM and the kcat (usually the maximal rate divided by the concentration of active sites) amounted to 18.17 ± 0.5 s⁻¹. Also, in data set [2], the Km amounted to 26 ± 6 µM and the kcat came to 3 ± 0.333 s⁻¹.
